Reference: US20240272082A1 (ARIZONA BOARD OF REGENTS ON BEHALF OF ARIZONA STATE …, published 2024)
Several values for one entry are separate records, joined by “and”; a condition that tells them apart may be missing. Identical values can stand only once. No end group written: not given here.

Legend:
[1] = target: T1, proprotein convertase subtilisin/kexin type 9 (PCSK9) (UniProt Q8NBP7 31-692, limits assumed); assay: CSOD; comparison of KD values of Table 2
T1 construct: Analyte in solution in both CSOD and SPR; also called PCSK9 protein
T1 sequence (Q8NBP7 31-692 limits assumed): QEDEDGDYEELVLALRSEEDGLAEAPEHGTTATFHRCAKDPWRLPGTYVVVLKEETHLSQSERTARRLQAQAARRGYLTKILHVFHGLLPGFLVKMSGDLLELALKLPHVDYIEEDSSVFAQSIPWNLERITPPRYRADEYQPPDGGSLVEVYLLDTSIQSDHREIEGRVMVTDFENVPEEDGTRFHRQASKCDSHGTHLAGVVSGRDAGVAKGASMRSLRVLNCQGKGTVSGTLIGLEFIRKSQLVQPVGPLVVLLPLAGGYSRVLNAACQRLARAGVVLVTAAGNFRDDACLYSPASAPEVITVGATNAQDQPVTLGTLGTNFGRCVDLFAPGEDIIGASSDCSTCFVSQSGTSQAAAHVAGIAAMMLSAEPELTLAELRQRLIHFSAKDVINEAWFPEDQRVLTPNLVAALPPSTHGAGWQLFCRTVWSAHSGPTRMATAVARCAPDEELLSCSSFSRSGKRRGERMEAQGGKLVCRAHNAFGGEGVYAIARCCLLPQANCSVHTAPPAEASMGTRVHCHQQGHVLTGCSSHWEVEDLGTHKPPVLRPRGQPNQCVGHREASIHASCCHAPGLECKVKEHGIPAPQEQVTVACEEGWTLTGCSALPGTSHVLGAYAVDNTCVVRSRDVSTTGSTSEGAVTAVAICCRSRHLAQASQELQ

[2] = target: T1, proprotein convertase subtilisin/kexin …; assay: CSOD; phage immobilised on fiber probe, PCSK9 in solution, global first-order fit
Description: The fiber probes were switched from a well containing a buffer to a well containing PCSK9 at 0 s for the measurement of the association process (downward facing arrow) and then switched back to the buffer well at the time indicated by the upward facing arrow for the measurement of the dissociation process.
The binding of different concentrations of PCSK9 proteins to the functionalized probes was studied in a 40-time diluted PBS buffer. For each measurement, a baseline was first established by dipping the functionalized fiber tip into a microplate well with a buffer; then, the fiber was switched to another well containing PCSK9 protein solution to measure the association curve. Finally, the fiber was moved back to the buffer well and the dissociation process was recorded. By fitting the kinetic curves at different concentrations globally with first order kinetics using Scrubber v.2.0c, the association rate constants (ka), dissociation rate constants (kd), and equilibrium constants (KD) for all samples are summarized in Table 2.

B1: SG pep2-8-2478 (M13 phage-displayed peptide, fused to pVIII) (peptide)
peptide: SGTVFTSWEEYLDWV
modifications: not fully specified
notes: Samples A and B are identical replicates prepared separately; also called Sample 5A; Sample 5B; not shown: M13 major coat protein pVIII (display carrier) and any linker between peptide and pVIII
[1]
  fold affinity change against Sample #4 (no SG pep2-8-2478): ~2 fold
[2]
  Kd: 370 nM and 380 nM
  koff: 0.00154 s⁻¹ and 0.00119 s⁻¹
  kon: 4200 M⁻¹ s⁻¹ and 3130 M⁻¹ s⁻¹
